B1: 8.16C10 (antibody, IgG1, V domains shown)
VH: QIQLQQSGPELVKPGASVKISYKASGYTFTDYYINWVKQKPGQGLEWIGWIYPGSGITKYNEKFKGKATLTVDSSSSTAYMQLSSLTSEDTAVYFCAIYGYDGGYAMDYWGQGTSVTVSS
VL: QIVLTQSPAIMSASPGEKVTLTCSASSSVSSSYLYWYQQKPGSSPKLWIYSTSNLASGVPARFSGGGSGTSYSLTISSMEAEDAASYFCHQWSTYPYTFGGGTKLEIKR

Key:
[1] = target: T cell Immunoglobulin- and Mucin domain-containing molecule 3 (TIM3), human, on cells (human) (UniProt Q8TDQ0); assay: cell binding (flow cytometry), Daudi cells
[2] = target: T cell Immunoglobulin- and Mucin domain-containing molecule 3 (TIM3), human, on cells (human) (UniProt Q8TDQ0); assay: cell binding (flow cytometry), Pfeiffer cells
[3] = target: T cell Immunoglobulin- and Mucin domain-containing molecule 3 (TIM3), human, on cells (human) (UniProt Q8TDQ0); assay: flow cytometry, CD34+ cells from a set of AML samples
[4] = target: T cell Immunoglobulin- and Mucin domain-containing molecule 3 (TIM3), human, on cells (human) (UniProt Q8TDQ0); assay: flow cytometry; cells not named in the table (Example 5 uses Pfeiffer cells)
[5] = target: T cell Immunoglobulin- and Mucin domain-containing molecule 3 (TIM3), human, on cells (human) (UniProt Q8TDQ0); assay: flow cytometry, PBMCs of AML patient 3, CD34+CD38- population
[6] = target: T cell Immunoglobulin- and Mucin domain-containing molecule 3 (TIM3), human, on cells (human) (UniProt Q8TDQ0); assay: cell binding (flow cytometry), CMK cells
[7] = target: T cell Immunoglobulin- and Mucin domain-containing molecule 3 (TIM3), human, on cells (human) (UniProt Q8TDQ0); assay: flow cytometry, bone marrow cells of AML patient 2, CD34+CD38- population
[8] = target: T cell Immunoglobulin- and Mucin domain-containing molecule 3 (TIM3), human, on cells (human) (UniProt Q8TDQ0); assay: flow cytometry, PBMCs of AML patient 2, CD34+CD38- population
[9] = target: T cell Immunoglobulin- and Mucin domain-containing molecule 3 (TIM3), human, on cells (human) (UniProt Q8TDQ0); assay: flow cytometry, bone marrow cells of AML patient 2, Blast population
[10] = target: T cell Immunoglobulin- and Mucin domain-containing molecule 3 (TIM3), human, on cells (human) (UniProt Q8TDQ0); assay: flow cytometry, PBMCs of AML patient 2, Blast population
[11] = target: T cell Immunoglobulin- and Mucin domain-containing molecule 3 (TIM3), human, on cells (human) (UniProt Q8TDQ0); assay: flow cytometry, PBMCs of AML patient 3, Blast population
[12] = target: T cell Immunoglobulin- and Mucin domain-containing molecule 3 (TIM3), human, on cells (human) (UniProt Q8TDQ0); assay: flow cytometry, PBMCs of AML patient 1, CD34+CD38- population
[13] = target: T cell Immunoglobulin- and Mucin domain-containing molecule 3 (TIM3), human, on cells (human) (UniProt Q8TDQ0); assay: flow cytometry, PBMCs of AML patient 1, Blast population
[14] = target: T cell Immunoglobulin- and Mucin domain-containing molecule 3 (TIM3), human, on cells (human) (UniProt Q8TDQ0); assay: flow cytometry, PBMCs of AML patient 5, Blast population
[15] = target: T cell Immunoglobulin- and Mucin domain-containing molecule 3 (TIM3), human, on cells (human) (UniProt Q8TDQ0); assay: flow cytometry, bone marrow cells of AML patient 1, CD34+CD38- population
[16] = target: T cell Immunoglobulin- and Mucin domain-containing molecule 3 (TIM3), human, on cells (human) (UniProt Q8TDQ0); assay: flow cytometry, PBMCs of AML patient 5, CD34+CD38- population
[17] = target: T cell Immunoglobulin- and Mucin domain-containing molecule 3 (TIM3), human, on cells (human) (UniProt Q8TDQ0); assay: flow cytometry, PBMCs of AML patient 4, CD34+CD38- population
[18] = target: T cell Immunoglobulin- and Mucin domain-containing molecule 3 (TIM3), human, on cells (human) (UniProt Q8TDQ0); assay: flow cytometry, bone marrow cells of AML patient 1, Blast population
[19] = target: T cell Immunoglobulin- and Mucin domain-containing molecule 3 (TIM3), human, on cells (human) (UniProt Q8TDQ0); assay: cell-based or functional assay
[20] = target: T cell Immunoglobulin- and Mucin domain-containing molecule 3 (TIM3), human, on cells (human) (UniProt Q8TDQ0); assay: flow cytometry, PBMCs of AML patient 4, Blast population

T cell Immunoglobulin- and Mucin domain-containing molecule 3 (TIM3), human, on cells (human), sequence (Q8TDQ0 22-301 limits assumed): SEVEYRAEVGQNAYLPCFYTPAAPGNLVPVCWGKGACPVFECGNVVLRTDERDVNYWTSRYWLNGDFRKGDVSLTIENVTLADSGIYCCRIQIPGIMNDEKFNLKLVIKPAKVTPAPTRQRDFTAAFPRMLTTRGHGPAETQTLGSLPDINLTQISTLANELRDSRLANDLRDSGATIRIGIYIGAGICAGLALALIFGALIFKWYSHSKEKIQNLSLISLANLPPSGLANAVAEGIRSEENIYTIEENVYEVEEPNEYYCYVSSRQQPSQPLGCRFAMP

Row | Molecule | percentage of cell binding [1] [%] | percentage of cell binding [2] [%] | % Positive for TIM3 [4] [%] | GeoMean (Intensity of TIM3 binding) [4] | percent binding [5] [%] | percent binding [7] [%] | percent binding [8] [%] | percent binding [9] [%] | percent binding [10] [%] | percent binding [11] [%] | percent binding [12] [%] | percent binding [13] [%] | also measured
1 | TIM3 2E2 (antibody) | 90 | 97 | 89.9 | 198 | 0.17 | 1.6 | 64.8 | 1.8 | 59.3 | 1.01 | 3.26 | 2.92 | Geomean [2]: 308; Positive/total (AML samples whose CD34+ cells were bound) (of 14 samples) [3]: 0; percentage of cell binding [6]: 19%
2 | B1 | 67 | 85 | 92.5 | 83.8 | 0.49 | 1.47 | 76.4 | 2.61 | 68.1 | 0.83 | 4.67 | 3.13 | percent binding [14]: 25%; percent binding [15]: 19.2%; percent binding [16]: 25%; percent binding [17]: 87%; percent binding [18]: 55.6%; IFN-gamma release from activated CD4+ T cells (ELISA), antibody at 5 ug/ml (fold reduction) [19]: > 2; IL-6 release from activated CD4+ T cells (ELISA), antibody at 5 ug/ml (fold reduction) [19]: > 2; percent of antibody internalized after 20 minutes, Pfeiffer cells [19]: > 50%; percent binding [20]: 78%

Source: patent publication US20150086574A1 (CELLERANT THERAPEUTICS, published 2015)
